For test [1], the target named is HLA-B*15:01. Kind of test: IEDB peptide-MHC binding, purified MHC/competitive/fluorescence; filed as Kd, often an IC50 or EC50 that approximates it; ≥ and ≤ were set here for values at or beyond the usual limits of such assays.
Test [2] addresses HLA-A*69:01. The description is as above. The settings on record: source organism: Homo sapiens.
Test [3] deals with HLA-B*57:01. The description is as above.
The next test has as its target HLA-B*46:01. The description is as above. The settings on record: source organism: Homo sapiens.
A further test has as its target HLA-B*39:01. Described as above. The settings on record: source organism: Homo sapiens.
In another test the target is HLA-B*27:03. The test is described as above. To be noted: source organism: Homo sapiens.
The target in a further test is HLA-B*51:01. The test is described as above. The settings on record: source organism: Homo sapiens.
A further test deals with HLA-A*01:01. Kind of test: IEDB peptide-MHC binding, purified MHC/direct/fluorescence; filed as Kd, often an IC50 or EC50 that approximates it; ≥ and ≤ were set here for values at or beyond the usual limits of such assays.
The next test concerns the target HLA-B*48:01. Described as above.
For test [4], the target named is HLA-A*02:01. Kind of test: IEDB peptide-MHC binding, purified MHC/competitive/radioactivity; filed as Kd, often an IC50 or EC50 that approximates it; ≥ and ≤ were set here for values at or beyond the usual limits of such assays.
Another test concerns the target HLA-B*08:01. Described as above.
Another test deals with HLA-A*02:17. The test is described as above.
For test [5], the target named is HLA-A*02:03. Described as above.
The target in test [6] is HLA-B*58:01. The test is described as above.
The target of another test is HLA-A*32:01. The description is as above.
Test [7] concerns the target HLA-B*57:01. The test is described as above.
The target in test [8] is HLA-A*02:03. Kind of test: IEDB peptide-MHC binding, purified MHC/competitive/fluorescence; filed as Kd, often an IC50 or EC50 that approximates it; ≥ and ≤ were set here for values at or beyond the usual limits of such assays. To be noted: source organism: human gammaherpesvirus 4.
Test [9] deals with HLA-A*02:01. The test is described as above. To be noted: source organism: human gammaherpesvirus 4.
The target in the next test is HLA-B*15:17. The test is described as above. To be noted: source organism: Escherichia coli str. K-12 substr. DH10B.
The target of test [10] is HLA-A*31:01. Kind of test: IEDB peptide-MHC binding, purified MHC/direct/fluorescence; filed as Kd, often an IC50 or EC50 that approximates it; ≥ and ≤ were set here for values at or beyond the usual limits of such assays. The settings on record: source organism: Escherichia coli O157:H7.
The next test concerns the target HLA-A*11:01. Described as above. The settings on record: source organism: Escherichia coli O157:H7.
The target in test [11] is HLA-B*58:01. The test is described as above. The settings on record: source organism: Escherichia coli O157:H7.
Test [12] addresses HLA-A*02:01. Described as above. To be noted: source organism: Escherichia coli O157:H7.
Test [13] concerns the target HLA-A*69:01. Described as above.
The target in another test is HLA-B*40:01. The description is as above. To be noted: source organism: Escherichia coli O157:H7.
The target in the next test is HLA-A*03:01. Described as above. To be noted: source organism: Escherichia coli O157:H7.
A further test deals with HLA-B*27:05. The test is described as above. To be noted: source organism: Escherichia coli O157:H7.
The next test has as its target HLA-A*02:06. Description: IEDB peptide-MHC binding, purified MHC/competitive/radioactivity; filed as Kd, often an IC50 or EC50 that approximates it; ≥ and ≤ were set here for values at or beyond the usual limits of such assays.
Another test has as its target HLA-B*18:01. Description: IEDB peptide-MHC binding, purified MHC/direct/fluorescence; filed as Kd, often an IC50 or EC50 that approximates it; ≥ and ≤ were set here for values at or beyond the usual limits of such assays.
For test [14], the target named is HLA-A*31:01. Description: IEDB peptide-MHC binding, purified MHC/competitive/radioactivity; filed as Kd, often an IC50 or EC50 that approximates it; ≥ and ≤ were set here for values at or beyond the usual limits of such assays. To be noted: source organism: Dengue virus 2 Jamaica/1409/1983.
For test [15], the target named is HLA-B*15:01. Described as above. The settings on record: source organism: Dengue virus 2 Jamaica/1409/1983.
For a further test, the target named is HLA-A*68:02. The test is described as above. The settings on record: source organism: Dengue virus 4 Philippines/H241/1956.
[16] abbreviates: source organism: Yellow fever virus.
[17] abbreviates: source organism: Dengue virus 1 Singapore/S275/1990.
[18] abbreviates: source organism: Dengue virus 1 Brazil/97-11/1997.
The mark [19] stands for this setting: source organism: Dengue virus 4 Dominica/814669/1981.
Where [20] appears, read: source organism: Escherichia coli str. K-12 substr. DH10B.
[21] abbreviates: source organism: Escherichia coli O157:H7.
Setting [22] is: source organism: Dengue virus 2 Jamaica/1409/1983.
Setting [23] is: source organism: Dengue virus 4 Philippines/H241/1956.
The mark [24] stands for this setting: source organism: Dengue virus 1 Nauru/West Pac/1974.
Setting [25] is: source organism: Dengue virus 3 Martinique/1243/1999.

Usually Kd stands for a measure of binding affinity in units of concentration.

NTAINFFLY: the dissociation constant Kd was no less than 20000 nM in the test with HLA-B*15:01 [1] (source organism: Homo sapiens); no less than 20 µM in the test with HLA-A*69:01 [2]; no less than 20000 nM with HLA-B*57:01 [3] (source organism: Homo sapiens); no less than 20 µM with HLA-B*46:01; no less than 20 µM with HLA-B*39:01; no less than 20 µM in the test with HLA-B*27:03. In addition, the Kd with HLA-B*51:01 is no less than 20 µM; with HLA-A*01:01 (source organism: Homo sapiens) it was 0.0036 µM.
As for YRNALSMMP, the Kd in the test with HLA-B*48:01 (setting [16]) is no less than 20 µM.
Regarding LMLLALIAVL, the Kd with HLA-A*02:01 [4] (setting [17]) was found to be 94.7 nM; with HLA-B*08:01 (setting [18]), 2.25 µM; with HLA-A*02:17 (setting [17]), 2170 nM.
With TMKEKSWLV, the Kd came to 94.6 nM with HLA-A*02:03 [5] (setting [18]), 54.7 nM with HLA-A*02:01 [4] (setting [17]) and 40.3 nM in the test with HLA-A*02:17 (setting [17]).
Regarding KTQAIDGEF, the Kd in the test with HLA-B*58:01 [6] (setting [19]) amounted to 287 nM; with HLA-A*32:01 (setting [19]), 640 nM.
With TASLVMLLVH, the results for the Kd with HLA-B*58:01 [6] (setting [19]) and with HLA-B*57:01 [7] (setting [19]) were 1350 nM and 7390 nM, respectively.
For SVRDRLARL, the dissociation constant (Kd) in the test with HLA-A*02:03 [8] stood at 12.3 nM; with HLA-A*02:01 [9], 407 nM.
With VSRDFDDVY, the Kd is 244 nM with HLA-B*15:01 [1] (setting [20]); no less than 20 µM with HLA-B*15:17; 792 nM with HLA-B*57:01 [3] (setting [20]); no less than 20 µM with HLA-A*31:01 [10]; no less than 20 µM with HLA-B*48:01 (setting [21]); no less than 20 µM with HLA-A*11:01. Also, the Kd with HLA-A*01:01 (setting [21]) was 18.6 µM; with HLA-B*58:01 [11], no less than 20 µM; with HLA-A*02:01 [12] it was no less than 20 µM; with HLA-A*69:01 [13] (setting [21]), no less than 20 µM; with HLA-B*40:01, no less than 20 µM; with HLA-A*03:01 it was no less than 20 µM. Besides, the Kd in the test with HLA-B*27:05 is no less than 20 µM.
For the sequence GLLFMILTV, the Kd with HLA-A*02:01 [4] (setting [17]) was 42.9 nM; with HLA-A*32:01 (setting [18]) it was no less than 77800 nM; with HLA-A*02:17 (setting [17]), 14300 nM.
Take FLNEDHWFS: the Kd with HLA-A*02:01 [4] (setting [22]) came out at 4 nM; with HLA-A*02:17 (setting [22]), 185 nM.
As to FLDLPLPWL, the results for the Kd in the test with HLA-A*02:06 (setting [22]), with HLA-A*02:01 [4] (setting [22]) and in the test with HLA-A*02:17 (setting [22]) were 127 nM, 10.3 nM and 9.46 nM, respectively.
In turn, SESLPIWGI came in with a Kd with HLA-B*18:01 (source organism: Cryptosporidium parvum Iowa II) of 13.7 µM.
GQPIPIAGL came in with a Kd with HLA-B*48:01 (source organism: Mycobacterium tuberculosis C) of 0.299 µM.
For MASSVLLWMA, the Kd with HLA-B*58:01 [6] (setting [17]) was found to be 223 nM; with HLA-A*02:06 (setting [17]) it was 90.6 nM; with HLA-B*57:01 [7] (setting [17]) it was 859 nM.
In the case of ERSWNSGHEW, in the test with HLA-B*58:01 [6] (setting [22]), the dissociation constant (Kd) worked out at 135 nM.
Consider AVASGLLWV, for which the Kd with HLA-A*02:03 [5] (setting [23]) was 1.89 nM; with HLA-A*02:06 (setting [23]) it was 11.7 nM; with HLA-A*02:01 [4] (setting [23]), 18.9 nM; with HLA-A*02:17 (setting [23]), 3300 nM.
On to VQGFIFFFL, for which the Kd in the test with HLA-B*18:01 (setting [16]) is no less than 5 µM.
For HSSAAQRRGR, the figures for the Kd in the test with HLA-A*31:01 [14], with HLA-B*58:01 [6] (setting [22]) and in the test with HLA-B*57:01 [7] (setting [22]) were 24.1 nM, 11300 nM and 71.8 nM, respectively.
As to KLARASFIEV, the Kd is 20.1 nM in the test with HLA-A*02:03 [5] (setting [18]), 22 nM with HLA-A*02:06 (setting [18]), 14.9 nM in the test with HLA-A*02:01 [4] (setting [17]) and 705 nM with HLA-A*02:17 (setting [17]).
On to IMAVGMVSI, for which the Kd was 8.29 nM with HLA-A*02:03 [5] (setting [22]), 20.4 nM in the test with HLA-A*32:01 (setting [22]) and 785 nM in the test with HLA-A*02:17 (setting [22]).
Regarding GLNTFTNMEV, the values for the dissociation constant Kd with HLA-A*02:03 [5] (setting [18]), with HLA-A*02:01 [4] (setting [23]) and with HLA-A*02:17 (setting [23]) were 15.3 nM, 3.82 nM and 421 nM, respectively.
For the sequence YQLAVTIMAI, the Kd was 11.2 nM with HLA-A*02:03 [5] (setting [22]); 15.8 nM with HLA-B*15:01 [15]; 11.3 nM with HLA-A*02:06 (setting [22]); 32.3 nM with HLA-A*02:01 [4] (setting [22]); 7840 nM in the test with HLA-A*02:17 (setting [22]).
Regarding MSSEGAWKHA, the Kd with HLA-B*58:01 [6] (setting [23]) came to 254 nM; with HLA-B*57:01 [7] (setting [23]), 134 nM.
Regarding SLLFKTSAGV, the equilibrium dissociation constant (Kd) with HLA-A*02:03 [5] (setting [18]) was determined as 287 nM; in the test with HLA-A*02:06 (setting [18]), 35.8 nM; in the test with HLA-A*02:01 [4] (setting [24]), 21.6 nM; with HLA-A*02:17 (setting [24]), 820 nM.
For the sequence TIMAVLFVV, the Kd in the test with HLA-A*02:03 [5] (setting [23]) worked out at 46.7 nM; with HLA-A*02:06 (setting [23]) it was 127 nM; with HLA-A*68:02, 43.4 nM; with HLA-A*02:01 [4] (setting [23]) it was 92.6 nM; in the test with HLA-A*02:17 (setting [23]), 789 nM.
As to FLAHYIGTSL, the Kd with HLA-A*02:03 [5] (setting [25]) was 3.3 nM; with HLA-A*02:17 (source organism: Dengue virus 3 China/80-2/1980) it was 22.5 nM.
As to ASSLLRNDVP, the Kd stood at 745 nM with HLA-B*58:01 [6] (setting [25]) and 11600 nM in the test with HLA-B*57:01 [7] (setting [25]).
RRYGGGLVR returned a Kd with HLA-B*48:01 (source organism: West Nile virus) of no less than 20 µM.
Take ATGPILTLW: the results for the Kd in the test with HLA-B*58:01 [6] (setting [19]) and with HLA-B*57:01 [7] (setting [19]) were 13.1 nM and 8.07 nM, respectively.
Consider GLLCLTLFV, for which the Kd worked out at 16.4 nM with HLA-A*02:06 (setting [23]), 2.44 nM with HLA-A*02:01 [4] (setting [23]) and 8.47 nM with HLA-A*02:17 (setting [23]).
In the case of ILLTAVAPSM, the values for the Kd in the test with HLA-A*02:01 [4] (setting [22]), with HLA-B*08:01 (setting [22]) and in the test with HLA-A*02:17 (setting [22]) were 2490 nM, 8.71 µM and 5960 nM, respectively.
Turning to IMAVGLVSL, the dissociation constant (Kd) is 0.16 nM in the test with HLA-A*02:03 [5] (setting [23]), 802 nM with HLA-A*02:17 (setting [23]) and no less than 20 µM with HLA-A*69:01 [13] (source organism: dengue virus type 4).
Take KTQRSGALW: the Kd stood at 6.11 nM with HLA-B*58:01 [6] (setting [23]) and 105 nM with HLA-B*57:01 [7] (setting [23]).
As to SSSNPTIEEG, the dissociation constant (Kd) with HLA-B*58:01 [6] (setting [23]) turned out to be 5990 nM.

For the origin of these results see the Immune Epitope Database (IEDB).
